The Kd is the free concentration of one partner at which half of the binding sites on the other are occupied at equilibrium, for simple one-to-one binding.

The target in test [1] is T1, BoNT/A1 holotoxin (Hall hyper) (Clostridium botulinum, UniProt P0DPI0 2-1296).
Test [2] deals with T2, BoNT/F1 (proteolytic BoNT/F) (Clostridium botulinum, UniProt A7GBG3 1-1278).
T2 sequence: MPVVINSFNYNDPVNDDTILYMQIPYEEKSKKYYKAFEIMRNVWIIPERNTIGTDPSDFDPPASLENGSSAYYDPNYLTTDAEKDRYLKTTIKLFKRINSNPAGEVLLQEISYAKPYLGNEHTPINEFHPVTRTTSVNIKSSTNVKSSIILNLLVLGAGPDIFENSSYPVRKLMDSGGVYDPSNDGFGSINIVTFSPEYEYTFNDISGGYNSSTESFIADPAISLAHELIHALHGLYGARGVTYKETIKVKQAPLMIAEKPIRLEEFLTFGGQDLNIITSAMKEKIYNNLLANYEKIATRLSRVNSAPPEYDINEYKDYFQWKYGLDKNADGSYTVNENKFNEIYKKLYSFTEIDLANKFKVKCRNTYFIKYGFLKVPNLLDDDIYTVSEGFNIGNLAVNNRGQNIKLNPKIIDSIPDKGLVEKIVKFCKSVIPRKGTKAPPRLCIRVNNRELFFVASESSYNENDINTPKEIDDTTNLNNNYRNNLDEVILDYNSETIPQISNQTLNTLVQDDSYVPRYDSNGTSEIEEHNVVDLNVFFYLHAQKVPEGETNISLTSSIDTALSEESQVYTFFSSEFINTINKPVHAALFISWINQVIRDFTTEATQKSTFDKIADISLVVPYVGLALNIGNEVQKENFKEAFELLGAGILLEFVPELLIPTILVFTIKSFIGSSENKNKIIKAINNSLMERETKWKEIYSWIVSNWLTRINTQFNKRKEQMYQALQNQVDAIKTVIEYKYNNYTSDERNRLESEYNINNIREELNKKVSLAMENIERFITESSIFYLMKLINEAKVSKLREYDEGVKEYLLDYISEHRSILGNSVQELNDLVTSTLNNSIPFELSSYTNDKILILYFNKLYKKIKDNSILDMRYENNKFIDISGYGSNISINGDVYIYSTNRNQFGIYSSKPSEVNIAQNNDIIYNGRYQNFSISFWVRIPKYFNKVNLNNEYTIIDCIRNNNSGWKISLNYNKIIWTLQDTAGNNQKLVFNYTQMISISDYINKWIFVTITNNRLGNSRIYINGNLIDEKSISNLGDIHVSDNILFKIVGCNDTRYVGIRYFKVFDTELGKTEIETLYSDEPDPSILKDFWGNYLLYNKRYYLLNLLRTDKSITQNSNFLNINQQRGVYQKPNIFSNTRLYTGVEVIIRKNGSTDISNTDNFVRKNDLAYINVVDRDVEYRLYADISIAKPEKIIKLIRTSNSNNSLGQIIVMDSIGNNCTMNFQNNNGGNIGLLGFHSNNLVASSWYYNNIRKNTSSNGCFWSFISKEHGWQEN
Description: yeast scFv FACS.

In test [3] the target is T2, BoNT/F1 (proteolytic BoNT/F).
For test [4] the target is unchanged. Description: yeast scFv FACS. The source holds these as a separate data set.
A further test addresses T3, BoNT/F 202F (Clostridium botulinum, UniProt P30996 1-1274).
T3 sequence: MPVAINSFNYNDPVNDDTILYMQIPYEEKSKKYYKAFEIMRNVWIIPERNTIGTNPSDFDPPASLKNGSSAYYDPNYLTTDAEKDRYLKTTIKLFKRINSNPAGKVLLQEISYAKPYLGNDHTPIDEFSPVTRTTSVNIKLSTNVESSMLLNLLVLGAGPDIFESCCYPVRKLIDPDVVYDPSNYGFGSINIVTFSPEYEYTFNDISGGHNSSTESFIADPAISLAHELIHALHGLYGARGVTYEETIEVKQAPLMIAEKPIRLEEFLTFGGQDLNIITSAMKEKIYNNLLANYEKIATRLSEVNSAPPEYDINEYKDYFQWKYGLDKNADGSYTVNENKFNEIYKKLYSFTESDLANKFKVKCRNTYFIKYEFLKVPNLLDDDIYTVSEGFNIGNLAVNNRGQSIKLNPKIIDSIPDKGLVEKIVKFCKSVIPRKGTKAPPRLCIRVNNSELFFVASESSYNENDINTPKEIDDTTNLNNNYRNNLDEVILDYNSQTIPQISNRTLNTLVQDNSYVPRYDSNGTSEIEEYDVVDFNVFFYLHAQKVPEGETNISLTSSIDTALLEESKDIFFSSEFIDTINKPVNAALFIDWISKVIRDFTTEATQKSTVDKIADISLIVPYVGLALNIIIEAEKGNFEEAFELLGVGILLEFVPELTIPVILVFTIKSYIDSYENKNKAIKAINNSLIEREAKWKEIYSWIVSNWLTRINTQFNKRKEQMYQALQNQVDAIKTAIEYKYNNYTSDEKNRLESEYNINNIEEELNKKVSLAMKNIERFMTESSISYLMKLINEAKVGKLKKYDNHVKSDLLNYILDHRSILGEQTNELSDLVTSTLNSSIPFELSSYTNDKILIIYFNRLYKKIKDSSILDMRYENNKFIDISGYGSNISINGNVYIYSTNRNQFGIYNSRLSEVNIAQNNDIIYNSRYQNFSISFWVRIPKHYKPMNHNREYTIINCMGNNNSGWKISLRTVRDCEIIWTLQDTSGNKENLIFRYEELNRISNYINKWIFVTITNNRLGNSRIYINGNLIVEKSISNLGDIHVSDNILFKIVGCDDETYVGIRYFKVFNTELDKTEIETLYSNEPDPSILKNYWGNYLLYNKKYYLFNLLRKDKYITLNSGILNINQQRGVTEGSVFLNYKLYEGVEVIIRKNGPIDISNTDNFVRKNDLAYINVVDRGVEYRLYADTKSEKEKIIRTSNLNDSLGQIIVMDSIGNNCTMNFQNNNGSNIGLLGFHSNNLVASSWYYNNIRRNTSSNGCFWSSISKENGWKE
Nature of the test: yeast scFv FACS.

Test [5] deals with T4, BoNT/A2 holotoxin (FRI-H1A2) (Clostridium botulinum, UniProt Q45894 2-1296).
Another test addresses T5, BoNT/F6 (Clostridium botulinum, UniProt P30996 1-1274).
T5 sequence: T3 sequence
Nature of the test: yeast scFv FACS.

Test [6] concerns the target BoNT/A light chain (recombinant) (Clostridium botulinum, UniProt P0DPI0 1-448). Nature of the test: KinExA, IgG.
Test [7] concerns the target T4, BoNT/A2 holotoxin (FRI-H1A2). Nature of the test: KinExA, IgG. In general terms: In KinExA the mixture passes briefly over coated beads that capture the unbound partner.
Test [8] deals with T1, BoNT/A1 holotoxin (Hall hyper). Nature of the test: KinExA, IgG.

Residue numbers refer to the chain shown, from its start. Like-named read-outs stand apart in the source and are kept apart here.

B1: B4 (antibody) (antibody, V domains shown)
VH: QVQLVESGGGVVRPGGSLRLSCAASGFTFDDYGMSWVRQAPGKGLEWVSAINWNGGNTGYADSVKGRFTISRDNAKNSLYLQMNSLRVEDTALYHCAREGDYGGLYFDYWGQGTLVTVSS
VL: not shown
Molecule B1 had an equilibrium dissociation constant (Kd) in test [1] of 0.0931 nM.

B2: 4E17.2 scFv (scFv, V domains shown)
VH: EVQLVQSGGNLVQPGGSLRLSCAATGPIGSHWMTWVRQAPGQGLEWVANINLDGTEKFYVDSVKGRFTVSRDNRKSSVFLQMNNLRVDDTAVYYCARLQWGGYNGWLSPWGQGTLVTVSS
VL: DIEMTQSPPSLSASVGDRVSLTCRASEYIGTSLNWYQQKPGKAPKLLIYAASALHSGVPSRFSGSGSGTDFTLTISGLQPEDFATYYCQQANDLPLTFGGGTKLEIK
For the molecule B2, the Kd in [2] was 0.39 nM; in test [3], less than 1 nM; in test [4] it was 0.39 nM. Further, the binding result with BoNT/F 202F is listed as “binds”.

B3: 4E17.1 (antibody, V domains shown)
VH: B2 VH with Q6R
VL: DIVMTQSPSSLSASVGDRVTISCRASQSIRHYVNWYQQKPGKAPKLLIYKASSLASGAPSRFSGSGSGTDFTLTISSLQPDDFATYYCQQSYSIPLTFGGGTKVEIKR
Regarding B3, the dissociation constant (Kd) in test [5] worked out at 0.00798 nM; in test [1] it was 0.00183 nM.

B4: 42G8 scFv (scFv, V domains shown)
VH: B2 VH with Q6P
VL: B2 VL with E3V, A91T
Consider B4, for which the “fold increase in affinity over scFv 4E17.2” value in test [3] was roughly 6 fold. Also, in test [4], the Kd worked out at 0.243 nM. The binding result in the test with BoNT/F 202F was “binds”.

B5: 28H2 scFv (scFv, V domains shown)
VH: QVQLQESGPGLVKPSQTVSLTCTVAGYSITNGNHWWNWIRQVSGSKLEWIGYITSSGSTDSNPSLKSRISITRDTSKNQLFLQLNSVTTEDIATYYCARSSNYFFHVLDYWGQGTSVTVSS
VL: DIVLTQTPAIMSASPGEKVTMTCSASSSVSYMHWFQQKPGTSPKLWIYSTSNLASGVPARFSGSGSGTSYSLTISRMEAEDAATYYCQQRSSYPPTFGGGTRLEIK
B5: the Kd in [2] and in test [4] was 1.55 nM in each case. In addition, the binding result in the test with BoNT/F6 was “no binding (tested: maximum toxin concentration tested)”; with BoNT/F 202F, “no binding”.

B6: A9 (antibody, V domains shown)
VH: QVQLVQSGGGVVQPGRSLRLSCAASGFTFSSYGMHWVRQAPGKGLEWVSSISSSSSYIYYADSVKGRFTISRDNSKNTLYLQMNSLRAEDTAVYYCARGAVAGGSYGMDVWGQGTMVTVSS
VL: not shown
Consider B6, for which the Kd in test [5] came to 0.223 nM; in test [1], 0.0771 nM.

B7: 6A1M IgG (antibody, V domains shown)
VH: LQLKQSGPGLVKPSQSLSLTCSVTGYSITSGYYWYWIRQFPGNKLEWMGYISYDGSNNYNPSLKNRISITRDTSKNQFFLKLNSVTTEDTATYYCARNLGLWYFDVWGTGTPLTVSS
VL: EIVLTQSPAILSASPGEKVTMTCRASSSVRYMHWYQQKPGSSPKPWIYATSNLASGVPARFSGSGSGTSYSLTISRVEAEDAATYYCQQWSGNAPTFGGGTKLEIK
notes: IgG converted from scFv
Regarding B7, the Kd in test [6] was found to be 1.38 nM; in test [7], 0.00289 nM; in test [8], 0.00921 nM.

B8: ING2 IgG (antibody, V domains shown)
VH: QVQLVQSGAEVKKPGSSVKVSCKASGDTFNRNAIAWVRQAPGQGLEWMGRIIPNLRTTHYAQKFQGRVAITADKHTNTVFMELSSLRSEDTAVYYCARDPYYYSYMDVWGKGTTVTVSS
VL: not shown
In the case of B8, the values for the Kd in test [6], in [7] and in test [8] were 85.7 nM, 0.00742 nM and 0.00957 nM, respectively.

The record behind these values is patent publication US20220089784A1 (University of California, published 2022).
